The values below come from patent US20070054328A1 (published 2007).

Assay [1] addresses T1, endogenous PTPL1 (Protein Tyrosine Phosphatase Like-Protein-1) of 293 cells (human, UniProt Q12923 1-2485, limits assumed). Nature of the assay: cell-based or functional assay.
Assay [2] addresses T1, endogenous PTPL1 (Protein Tyrosine …). Briefly: GST pull-down from 293 cells; pNPP phosphatase assay and anti-PTPL1 immunoblot. Here is the method: Rates or amounts of para-nitrophenol production were calculated using a standard curve generated from known amounts of para-nitrophenol. For the insulin receptor peptide assay a 50 μl reaction was set up containing 20 mM Tris pH7.4, 150 mM NaCl, 1 mM DTT, 20 μM of the tyrosine-phosphorylated peptide and 100 ng of GST-PTPL1. After 10 min at room temperature, the reactions were terminated by the addition of 0.1 ml of BIOMOL green reagent and after an additional 20 min the amount of phosphate liberated was quantitated by absorbance at 620 nm and measured against inorganic phosphate standards. In all assays we ensured that the rate of para-nitrophenol formation or the dephosphorylation of the insulin receptor peptide, was linear with time.
Immunoblotting. For blots of total cell lysates or tissues 20 μg of protein was used. For the purified GST fusion proteins to detect association of endogenous PTPL1, 10 μg of fusion protein was employed for the PTPL1 blots and 0.1 μg for the GST blots. Samples were subjected to SDS/PAGE and transferred to nitrocellulose. […]
A general note: Immunoblotting shows a protein as a band on a membrane.

T1 sequence (Q12923 whole entry): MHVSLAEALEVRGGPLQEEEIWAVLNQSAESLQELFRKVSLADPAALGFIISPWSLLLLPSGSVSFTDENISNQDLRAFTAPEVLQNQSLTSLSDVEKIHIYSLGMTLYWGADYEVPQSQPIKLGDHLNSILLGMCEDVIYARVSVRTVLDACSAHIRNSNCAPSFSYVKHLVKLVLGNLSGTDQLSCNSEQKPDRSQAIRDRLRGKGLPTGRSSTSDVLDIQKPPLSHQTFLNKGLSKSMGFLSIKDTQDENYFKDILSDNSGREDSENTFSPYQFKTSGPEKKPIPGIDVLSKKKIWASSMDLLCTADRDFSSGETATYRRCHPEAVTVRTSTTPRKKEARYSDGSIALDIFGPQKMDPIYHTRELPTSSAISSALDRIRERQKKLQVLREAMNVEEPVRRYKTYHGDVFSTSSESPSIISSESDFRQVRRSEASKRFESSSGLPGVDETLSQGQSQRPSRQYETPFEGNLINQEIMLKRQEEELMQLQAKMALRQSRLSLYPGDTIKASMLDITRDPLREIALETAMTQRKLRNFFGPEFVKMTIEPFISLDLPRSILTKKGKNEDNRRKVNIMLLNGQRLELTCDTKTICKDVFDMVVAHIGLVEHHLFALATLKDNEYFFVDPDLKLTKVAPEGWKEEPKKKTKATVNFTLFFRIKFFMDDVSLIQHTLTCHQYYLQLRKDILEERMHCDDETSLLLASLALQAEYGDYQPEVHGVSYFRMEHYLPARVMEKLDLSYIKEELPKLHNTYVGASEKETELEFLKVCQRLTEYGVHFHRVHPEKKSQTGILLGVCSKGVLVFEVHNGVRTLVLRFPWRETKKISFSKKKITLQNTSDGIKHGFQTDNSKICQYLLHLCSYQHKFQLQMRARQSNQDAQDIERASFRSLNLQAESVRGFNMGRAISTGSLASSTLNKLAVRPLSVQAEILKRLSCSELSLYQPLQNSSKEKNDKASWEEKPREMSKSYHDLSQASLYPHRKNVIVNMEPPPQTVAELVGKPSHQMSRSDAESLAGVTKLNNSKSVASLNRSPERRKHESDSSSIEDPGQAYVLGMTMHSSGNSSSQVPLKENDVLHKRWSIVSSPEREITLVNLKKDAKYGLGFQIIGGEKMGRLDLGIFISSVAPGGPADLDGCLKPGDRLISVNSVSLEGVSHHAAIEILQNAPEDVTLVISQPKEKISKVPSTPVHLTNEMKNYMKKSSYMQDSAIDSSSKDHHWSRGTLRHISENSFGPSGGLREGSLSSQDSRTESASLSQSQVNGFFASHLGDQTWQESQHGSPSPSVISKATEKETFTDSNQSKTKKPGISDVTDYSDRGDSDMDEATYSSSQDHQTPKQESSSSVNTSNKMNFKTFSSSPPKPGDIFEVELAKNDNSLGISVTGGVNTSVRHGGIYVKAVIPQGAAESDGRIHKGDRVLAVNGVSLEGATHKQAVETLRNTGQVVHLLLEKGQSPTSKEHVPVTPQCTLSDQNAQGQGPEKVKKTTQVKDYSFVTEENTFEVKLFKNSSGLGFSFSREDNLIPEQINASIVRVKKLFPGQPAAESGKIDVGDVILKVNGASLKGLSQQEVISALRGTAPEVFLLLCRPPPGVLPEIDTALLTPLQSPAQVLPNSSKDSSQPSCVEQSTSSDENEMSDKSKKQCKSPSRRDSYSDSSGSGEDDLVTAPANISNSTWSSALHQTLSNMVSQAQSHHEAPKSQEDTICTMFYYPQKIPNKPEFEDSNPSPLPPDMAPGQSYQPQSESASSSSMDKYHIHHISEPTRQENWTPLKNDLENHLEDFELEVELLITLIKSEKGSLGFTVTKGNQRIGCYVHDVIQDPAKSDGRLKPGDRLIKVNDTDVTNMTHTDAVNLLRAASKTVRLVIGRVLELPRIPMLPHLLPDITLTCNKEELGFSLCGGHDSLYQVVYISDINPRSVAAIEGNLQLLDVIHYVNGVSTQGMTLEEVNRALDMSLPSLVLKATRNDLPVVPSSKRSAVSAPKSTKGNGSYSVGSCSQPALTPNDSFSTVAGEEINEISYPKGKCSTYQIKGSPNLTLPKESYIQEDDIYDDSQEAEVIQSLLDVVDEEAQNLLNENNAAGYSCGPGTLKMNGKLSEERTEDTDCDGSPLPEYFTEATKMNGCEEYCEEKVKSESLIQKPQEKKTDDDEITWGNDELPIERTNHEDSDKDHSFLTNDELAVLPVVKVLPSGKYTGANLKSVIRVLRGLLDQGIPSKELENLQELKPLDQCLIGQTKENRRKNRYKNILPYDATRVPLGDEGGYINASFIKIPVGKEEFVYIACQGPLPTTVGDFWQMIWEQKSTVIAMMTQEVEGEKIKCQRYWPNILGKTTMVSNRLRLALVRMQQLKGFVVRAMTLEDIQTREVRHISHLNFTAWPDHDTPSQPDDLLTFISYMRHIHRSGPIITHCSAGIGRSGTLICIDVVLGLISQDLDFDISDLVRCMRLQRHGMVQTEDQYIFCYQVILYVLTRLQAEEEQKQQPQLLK

B1: endogenous TAPP1 of 293 cells (other, human, UniProt Q9HB21 1-404, looked up)
chain: MPYVDRQNRICGFLDIEENENSGKFLRRYFILDTREDSFVWYMDNPQNLPSGSSRVGAIKLTYISKVSDATKLRPKAEFCFVMNAGMRKYFLQANDQQDLVEWVNVLNKAIKITVPKQSDSQPNSDNLSRHGECGKKQVSYRTDIVGGVPIITPTQKEEVNECGESIDRNNLKRSQSHLPYFTPKPPQDSAVIKAGYCVKQGAVMKNWKRRYFQLDENTIGYFKSELEKEPLRVIPLKEVHKVQECKQSDIMMRDNLFEIVTTSRTFYVQADSPEEMHSWIKAVSGAIVAQRGPGRSASSEHPPGPSESKHAFRPTNAATATSHSTASRSNSLVSTFTMEKRGFYESLAKVKPGNFKVQTVSPREPASKVTEQALLRPQSKNGPQEKDCDLVDLDDASLPVSDV
Consider B1, for which the “pNPP phosphatase activity immunoprecipitated with the anti-PTPL1 antibody compared with the TAPP1 antibody” value in assay [1] is approximately 6 fold.

B2: GST-DAPP1 (other, UniProt Q9UN19 1-280, looked up)
chain: MGRAELLEGKMSTQDPSDLWSRSDGEAELLQDLGWYHGNLTRHAAEALLLSNGCDGSYLLRDSNETTGLYSLSVRAKDSVKHFHVEYTGYSFKFGFNEFSSLKDFVKHFANQPLIGSETGTLMVLKHPYPRKVEEPSIYESVRVHTAMQTGRTEDDLVPTAPSLGTKEGYLTKQGGLVKTWKTRWFTLHRNELKYFKDQMSPEPIRILDLTECSAVQFDYSQERVNCFCLVFPFRTFYLCAKTGVEADEWIKILRWKLSQIRKQLNQGEGTIRSRSFIFK
notes: Control GST fusion expressed in 293 cells; also called dual adaptor for phosphotyrosine and 3-phosphoinositides; not shown: N-terminal glutathione S-transferase (GST) tag
For B2, in assay [2], the binding result is “no binding”.

B3: GST-FAPP1 (other, UniProt Q9HB20 1-300, looked up)
chain: MEGVLYKWTNYLTGWQPRWFVLDNGILSYYDSQDDVCKGSKGSIKMAVCEIKVHSADNTRMELIIPGEQHFYMKAVNAAERQRWLVALGSSKACLTDTRTKKEKEISETSESLKTKMSELRLYCDLLMQQVHTIQEFVHHDENHSSPSAENMNEASSLLSATCNTFITTLEECVKIANAKFKPEMFQLHHPDPLVSPVSPSPVQMMKRSVSHPGSCSSERSSHSIKEPVSTLHRLSQRRRRTYSDTDSCSDIPLEDPDRPVHCSKNTLNGDLASATIPEESRLMAKKQSESEDTLPSFSS
notes: Control GST fusion expressed in 293 cells; not shown: N-terminal glutathione S-transferase (GST) tag
On to B3, for which, in assay [2], the binding result is “no binding”.
